From patent US20240261374A1, “PHARMACEUTICAL COMPOSITION AND KIT COMPRISING AN IMMUNOMODULATORY SUBSTANCE FOR TREATING DISEASES” (ellennbe GmbH, priority 2021, published 2024) come the findings set out here.

Experiment [1] has as its system patient suffering from multiple sclerosis. In words: treatment of a patient: SHILD-score, relapses, fatigue. The experiment is classed as in vivo, human. Particulars: for subject's condition in multiple sclerosis: as indicated by the SHILD-score; for SHILD-score: multiple sclerosis.
The test system of experiment [2] is ankylosing spondylitis (Bechterew's disease). The experiment is classed as in vivo, human. Particulars: Patient 11; ended more than a year before; lost their effect within half a year.
The mark [3] stands for this setting: as can be seen from the examples.

B1: IL-4: recombinant human IL-4 produced in Escherichia coli, R&D Systems catalogue number 204-IL/CF; SEQ ID NO: 3 (protein, listed as Homo sapiens)
chain: METGLYLETHRSERGLNLELEPRPRLEPHEPHELELEALACYSALAGLYASNPHEVALHISGLYHISLYSCYSASPILETHRLEGLNGLILEILELYSTHRLEASNSERLETHRGLGLNLYSTHRLECYSTHRGLLETHRVALTHRASPILEPHEALAALASERLYSASNTHRTHRGLLYSGLTHRPHECYSARGALAALATHRVALLEARGGLNPHETYRSERHISHISGLLYSASPTHRARGCYSLEGLYALATHRALAGLNGLNPHEHISARGHISLYSGLNLEILEARGPHELELYSARGLEASPARGASNLETRPGLYLEALAGLYLEASNSERCYSPRVALLYSGLALAASNGLNSERTHRLEGLASNPHELEGLARGLELYSTHRILEMETARGGLLYSTYRSERLYSCYSSERSER
modifications: human IL-4, Interleukin 4
Take B1: in experiment [1] (setting [3]), the “fatigue in case of multiple sclerosis” value was “reduction” and the “relapses in case of multiple sclerosis” value is given as “avoiding”. In addition, in experiment [1], the “subject's condition in multiple sclerosis” value is recorded as “stabilization or even improvement” and the SHILD-score entry is given as “decreasing”.

B2: Cimzia®: biologic, certolizumab pegol (antibody, chains of the INN, looked up, V domains shown)
VH: EVQLVESGGGLVQPGGSLRLSCAASGYVFTDYGMNWVRQAPGKGLEWMGWINTYIGEPIYADSVKGRFTFSLDTSKSTAYLQMNSLRAEDTAVYYCARGYRSYAMDYWGQGTLVTVSS
VL: DIQMTQSPSSLSASVGDRVTITCKASQNVGTNVAWYQQKPGKAPKALIYSASFLYSGVPYRFSGSGSGTDFTLTISSLQPEDFATYYCQQYNIYPLTFGQGTKVEIK
modifications: Fab' PEG (pegol)
Take B2: the “Effect of earlier treatment with biologics (patient history)” value in experiment [2] is recorded as “had little effect from the outset”.

B3: BDNF: recombinant human BDNF produced in Escherichia coli, R&D Systems catalogue number 248-BDB/CF; SEQ ID NO: 4 (protein, listed as Homo sapiens)
chain: HSDPARRGELSVCDSISEWVTAADKKTAVDMSGGTVTVLEKVPVSKGQLKQYFYETKCNPMGYTKEGCRGIDKRHWNSQCRTTQSYVRALTMDSKKRIGWRFIRIDTSCVCTLTIKRGR
modifications: human BDNF, human brain-derived neurotrophic factor
Take B3: the “fatigue in case of multiple sclerosis” value in experiment [1] (setting [3]) is “very effectively relieving”. Also, in experiment [1], the “subject's condition in multiple sclerosis” value is on record as “stabilized or even improved” and the SHILD-score entry is “decreasing”.
